# Assay: yeast display, Sf9 membrane polyspecificity reagent, FACS + sequencing; frameworks hold sequencing errors
# Outline: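 Using colony PCR, genes from sorted yeast display clones were amplified, then sequenced on MiSeq at 2 × 250 and filtered by CDR length. The clones had been stained with 10% biotinylated, detergent-solubilized Sf9 membrane reagent for 1 hour at 4 °C and sorted by FACS into low and high (top ~1%) gates on anti-HA and streptavidin fluorescence. Polyreactivity labels come from the gate of origin.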
row,Sequence,polyreactivity (PSR sort gate)
1,QVQLVESGGGLVQAGGSLRLSCAASGSTFGLYAMGRYRQAPGKERELVAAIRYSDGSTYYADSVKGRFTISRDNAKNTVYLQMNSLKPEDTAVYYCAAEIGTYFHVPTEYDYWGQGTQVTVSS,low polyreactivity
2,QVQLVESGGGLVQAGGSLRLSCAASGSTFGLYAMGWYRQAPGKERELVAAIRWSGGRTYYADSVKGRFTISRDNAKNTVYLQMNSLKPEDTAVYYCAARSLRSKNDYWGQGTQVTVSS,high polyreactivity
3,QVQLVESGGGLVQAGGSLRLSCAASGSTFGLYAMGWYRQAPGKERELVAAISYSGSSTYYADSVKGRFTISRDNAKNTVYLQMNSLKPEATAVYYCAARRSEHGYNYWGQGTQVSVSS,high polyreactivity
4,QVQLVESGGGLVQAGGSLRLSCAASGSTFGNAMGWYRQAPGKERELVAAISGSGSDTYYADSVKGRFTISRDNAKNTVYLQMNSLKPEDTAVYYCNTGWDPYGYDYWGQGTQVTVSS,low polyreactivity
5,QVQLVESGGGLVQAGGSLRLSCAASGSTFGPNAMGWYRQAPGKERELVAAIRSNGGRTYYADSVKGRFTISRDNAKNSVYLQMNSLKPEDTAVYYCAAPHYPYDTPYGYWGQGTQVTVSS,low polyreactivity
6,QVQLVESGGGLVQAGGSLRLSCAASGSTFGPYAMGWYRQAPGKERELVAAIRSDGGTYYADSVKGRFTISRDNAKNTVYLQMNSLKPEDTAVYYCNAVRGAAWRCYNSWQTYPRDYWGQGTQVTVSS,high polyreactivity
7,QVQLVESGGGLVQAGGSLRLSCAASGSTFGPYAMGWYRQAPGKERELVAAISRGGSTYYADSVKGRFTISRDNAKNTVYLQMNSLKPEDTAVYYCAARYVRVGYDYWGQGTQVTVSS,high polyreactivity
8,QVQLVESGGGLVQAGGSLRLSCAASGSTFGPYAMGWYRQAPGKERELVATITRNGGSTYYADSVKGRFTISRDNAKNTVYLQMNSLKPEDTAVYYCNAEGRWSSFTQRMDYWGQGTQVTVSW,low polyreactivity
9,QVQLVESGGGLVQAGGSLRLSCAASGSTFGPYDMGWYRQAPGQERDLVAAITRSGGRTYYADSVKGRFTFSRDNAKNTVYLQKNSLKPEDTAVYYCAAPPSEATSQRYKYNYWGQGTQVTVSS,high polyreactivity
10,QVQLVESGGGLVQAGGSLRLSCAASGSTFGPYVMGWYRQAPGKERELVAAISRIGGRTYYADSVKGRFTISRDNAKNTVYLQMNSLKPEDTAVYYCAAKVGLYGDDYWGQGTQVTVSS,high polyreactivity
11,QVQLVESGGGLVQAGGSLRLSCAASGSTFGRNALGWYRQAPGKERELVASISWGGGSTYYADSVKGRFTISRDNAKNTVYLQMNSLKPEDTAVYYSNARRFLWSQLSGSFSYDYWGQGTQVTVSS,high polyreactivity
12,QVQLVESGGGLVQAGGSLRLSCAASGSTFGRNAMGWYRQAPGKERELVAAITASGGTTYYADSVKGRFTISRDNAMNTVYLQMNSLKPEDTAVYYCARAGHFSFKYDYWGQGTQVTVSS,low polyreactivity
13,QVQLVESGGGLVQAGGSLRLSCAASGSTFGRNAMGWYRQAPGNERELVAAISKRGGSTYYADSVKGRFTISRDNAKNTVYLQMNSLKPEDTAVYYCAKDVEGLGRRYRWYNYWGQGTQVTVSS,high polyreactivity
14,QVQLVESGGGLVQAGGSLRLSCAASGSTFGRYAKGWYRQAPGKERQLVAAISSSGVTTYYADSVKGRFTISRDNAKNSVYLQINSLKPEDTAVYYCSQTYKYHRWITKYGYWGQGTQVTVSS,high polyreactivity
15,QVQLVESGGGLVQAGGSLRLSCAASGSTFGRYAMGWYRQAPGKERELVAAISRGTTTNYADSVKGRFTIARDNAKNTVYLQMNSLKPEDTAVYYCAADQPSKRYYSWGQGTQVTVSS,low polyreactivity
16,QVQLVESGGGLVQAGGSLRLSCAASGSTFGRYAMGWYRQAPGKERELVAAISRGTTTNYADSVKGRFTISRDNAKNTVYLQMNILKPEDTAVYYCAAQTDSVESDYWGQGTQVTVSS,low polyreactivity
17,QVQLVESGGGLVQAGGSLRLSCAASGSTFGRYAMGWYRQAPGKERELVAAISRRGASTYYADSVKGRFTISRDNAKNTVYLQMNSLKPEDTAVYYCATGYPIDLGREFDYWGQGIQVTVSS,high polyreactivity
18,QVQLVESGGGLVQAGGSLRLSCAASGSTFGRYVMGRYRPAPGKERELVAAISGSGGSTYYADSVKGRFTISRDNAKNTVYLQMNSLKPEDTAVYYCAARVAHYEYYWGQGTQVTVSS,high polyreactivity
19,QVQLVESGGGLVQAGGSLRLSCAASGSTFGSNAMGWYREAPGKERELVAAIDANGGSTYYADSVKGRFTISRDNAKNTVYLQMNSLKPEDTAVYYCAAAGYWYYYVPNDYWGQGTQVTVSS,low polyreactivity
20,QVQLVESGGGLVQAGGSLRLSCAASGSTFGSNAMGWYRQAPGKEREFVAAISRRGGSTYYADSVKGRFTISRDNAKNTVYLQMNSLKPEDTAVYYCAADYISLREEDYWGQGTQVTVSS,high polyreactivity
21,QVQLVESGGGLVQAGGSLRLSCAASGSTFGSNAMGWYRQAPGKERELVAAIRGIVGSTYYADSVKGRFTISRDNAKNTVYLQMNSLKPEDTAVYYCNKAEVSTYYQTRSTYGGYDYWGQGTQVTVSS,low polyreactivity
22,QVQLVESGGGLVQAGGSLRLSCAASGSTFGSNAMGWYRQAPGKERELVAAISWTGGSTYYADSVKGRFTISRDNAKYTVYLQMKSLKPEDTAVYYCNAYGYGYPLYRYDYWGQGTQVTVSS,low polyreactivity

row,Sequence,polyreactivity (PSR sort gate)
1,QVQLVESGGGLVQAGGSLRLSCAASGSTFGSNAMGWYRQEPGKERELVAAITGGGTTSYADSVKGRFTISRDNAKNTVYLQMNSLKPEDTAVYYCNVLFADKSDYWGQGTQVTVSS,low polyreactivity
2,QVQLVESGGGLVQAGGSLRLSCAASGSTFGSYAMGWYRQAPGKERELVAAISGGGSTYYADSVKGRFTISRDNAKNTVYLQMNSLKPEDTAVYYCNAYWKYWRTNGPGTKYNYWGQGTQVTVSS,high polyreactivity
3,QVQLVESGGGLVQAGGSLRLSCAASGSTFGSYAMGWYRQAPGKERELVAAISTRGGRTRYADSVKVRFTISRDNAKNTVYLQMNSLKPQDTAVDYCATRIGSRVYNVSGYYRKDDYWGQGTQVTVSS,high polyreactivity
4,QVQLVESGGGLVQAGGSLRLSCAASGSTFGSYAMRWYRQAPGKERELVAAITASGGSTYYADSVKGRFTISRDNAKNTVYLQMNSLKPEDTAVYYCAADTTYIPLSIEYDYWGQGTQVTVSS,low polyreactivity
5,QVQLVESGGGLVQAGGSLRLSCAASGSTFGSYAMVWYRQAPGKERELVADISSRGASTYYADSVKGRFTISRDNAKNTVYLQMNRLKPEDTAVYYCARDVYIWYGYGYFPEYEYWGQGTQVTVSS,low polyreactivity
6,QVQLVESGGGLVQAGGSLRLSCAASGSTFGSYGMGWYRQAPGKERELVAVITYSGDRTYYADSVKGRFTISRDNAKNTVYLQMNSLKPEDTAVYYCAADRSYRVSEYDYWGQGTQVTVSS,low polyreactivity
7,QVQLVESGGGLVQAGGSLRLSCAASGSTFGSYTKGWSRPAPGQERELVAAINWSGGNTYYADSVKGRFTISRDNAKNTVYLQMTSLKREDTAVYYCAAAFYIYGVEGDYWGQGTQVTVSS,low polyreactivity
8,QVQLVESGGGLVQAGGSLRLSCAASGSTFGSYTMGWYRQAPGKEREFVAAIRWIGGSTYYADSVKGRFTISRDNAKNTVYLQMNSLKPEDTAVYYCNAKRRKHGYYYWGQGTQVTVSS,high polyreactivity
9,QVQLVESGGGLVQAGGSLRLSCAASGSTFGTNAMGWYRQAPGKERELVAAITRGGNTYYADSVKGRFTISRDNAKNTVYLQMNSLKTEDTAVYYCNTYTRASRFDYWGQGTQVTVSS,high polyreactivity
10,QVQLVESGGGLVQAGGSLRLSCAASGSTFGTYAMGCYRQAPGKARELVAAISGRGTSTYYADSVKGRFTISRDNAKITVYLQMNSLKPEDTAVYYCNAVFWSRSSHFDYWGQGTQVTVSS,high polyreactivity
11,QVQLVESGGGLVQAGGSLRLSCAASGSTFGTYAMGWYRQAPGKERELVAAISSGDSTTYADSVKGRFTISRDNAKNTVYLQMNSLKPEDTAVYYCAARVPYKSDYWGQGTQVTVSS,low polyreactivity
12,QVQLVESGGGLVQAGGSLRLSCAASGSTFGTYAMGWYRQAPGKERELVAAISSGGSTYYADSVKGRFTISRDNAKNTVYLQMNSLKPEDTAVYYCAAGYYWYVWGFGYWGQGTQVSVSS,low polyreactivity
13,QVQLVESGGGLVQAGGSLRLSCAASGSTFGTYAMGWYRQAPGKERELVAAISYRGGSTYYADSVKGRFTISRDNAKNTVYLQMNSLKPEDTAVYYCATRKYAATGYDYWGQGTQVTVSS,high polyreactivity
14,QVQLVESGGGLVQAGGSLRLSCAASGSTFGTYAMGWYRQAPGKERELVAVISWSDGRTYYADSVKGRFTISRDNAKNTVYLQMISLKPEDTAVYYCNARLDTFVPRYGYWGQGTQVTVSS,high polyreactivity
15,QVQLVESGGGLVQAGGSLRLSCAASGSTFGVNAMGWYRPAPGKERELVAAISRSGTSTYYADSVKGRFTISRDNAKNTVYLLMNSLKPEDTAVYYCAAQYFSGYHKYGYWGQGTQVTVSS,high polyreactivity
16,QVQLVESGGGLVQAGGSLRLSCAASGSTFGVNAMGWYRQAPGKEREFVAAITSSSGSTYYADSVKGRFTISRDNAKNTVYLQMNSLKPEDTAVYYCNKRYIQLYDYWGQGTQVTVSS,low polyreactivity
17,QVQLVESGGGLVQAGGSLRLSCAASGSTFGVYAMGWYRQAPGKERELVAAINYSGRTYYADSVKGRFTISRDNAKNTVYLQMNSLKPEDTAVYYCAADWYWSRHEYEYWGQGTQVTVSS,high polyreactivity
18,QVQLVESGGGLVQAGGSLRLSCAASGSTFGWYAMGWYREAPGKERELVAAISWLGTSTYYADSVKGRFTISRDNAKNTVYLQLNSLKPEDTAVYFCAADAYDVYYAYYYWGQGTQVTVSS,high polyreactivity
19,QVQLVESGGGLVQAGGSLRLSCAASGSTFGWYAMGWYRQAPGKESELVAAIRTSGGDSTYYADSVKGRFTISRDNAKNTVYLQMNSLKPEDTAVYYCAKTVWWYYRYPFDYWGQGTQGTVSS,low polyreactivity
20,QVQLVESGGGLVQAGGSLRLSCAASGSTFGYNAMGWYRPAPGKERELVARITSSGGSTYYADSVKGRFTISRDNAKISVYLQMNSLKPEDTAVYYCAAGYPYRAVYRYYYWGQGTQVTVSS,high polyreactivity
21,QVQLVESGGGLVQAGGSLRLSCAASGSTFGYNAMGWYRQAAGKERELVAGISSGGSTNYADSVKGRFTISRDNAKNTVYLQMNSLKPEDTAVYYCAAYKYDHRVDTGYDYWGQGTQVTVSS,low polyreactivity

# Source: the nanobody polyreactivity screen of Harvey et al. (2022)
